For assay [1], the target named is T1, HIS:SUMO:HD2 fusion protein (tick; entry name EVA4_RHISA, the …). The assay is described as follows: BLI.
Assay [2] concerns the target T1, HIS:SUMO:HD2 fusion protein. The assay is described as follows: BLI. This is another data set of the same source. In general terms: BLI is a label-free optical method that tracks binding on a fibre tip over time.

“And” between values parts separate entries of the source, which are not always exact repeats. Equal entries are not always repeated. Where two headings read alike, the source gives them in different places.

The term Kd denotes the concentration at which binding is half-saturated. Lower therefore signals tighter binding.

B1: CCL8 (ligand)
chain: QPDSVSIPITCCFNVINRKIPIQRLESYTRITNIQCPKEAVIFKTKRGKEVCADPKERWVRDSMKHLDQIFQNLKP
Consider B1, for which the Kd in assay [1] was 142 nM and 84.9 nM; in assay [2], 142 nM.

Values taken from publication PMC10505172 (2023).
